Test results reported in patent publication US20190322730A1 (NGM BIOPHARMACEUTICALS, published 2019).

Assays:
[1] = molecular target: T1, human complement component C3 (human, UniProt P01024 23-667; P01024 672-1663); test: SPR (Biacore)
T1 construct: also called human C3
Procedure: The binding affinities of exemplary anti-C3 antibodies to human C3 and cyno C3 were measured using a Biacore system (GE Healthcare LifeSciences). Briefly, anti-Fc antibody (Sigma-Aldrich) was immobilized on all four flow cells of a CM5 chip using amine coupling reagents (GE Healthcare LifeSciences). Antibodies were captured on flow cells 2, 3, and 4 using flow cell 1 as a reference. Concentrations ranging from 0.62-40 nM of human C3 or cyno C3 were injected at a flow rate of 50 μL/min at 37° C. Kinetic data were collected over time and fit using the simultaneous global fit equation to yield affinity constants (KD values) for each antibody.

[2] = molecular target: T1, human complement component C3; test: cell-based or functional assay
[3] = molecular target: T2, cynomolgus monkey complement component C3 (cynomolgus monkey, UniProt P01024 24-1663 (human entry)); test: cell-based or functional assay
[4] = molecular target: T1, human complement component C3; test: cell-based or functional assay; remark: listed apart in the source
[5] = molecular target: T1, human complement component C3; test: cell-based or functional assay; remark: listed apart in the source
[6] = molecular target: T2, cynomolgus monkey complement component …; test: cell-based or functional assay; remark: listed apart in the source
[7] = molecular target: T1, human complement component C3; test: binding screen of Example 5; method and unit not stated
C3a = C3a (human, UniProt P01024 672-748); test: as above
C3b = C3b (human, UniProt P01024 23-667; P01024 749-1663); test: as above
C3d = molecular target: T3, C3d (UniProt P01024 1002-1303, limits assumed); test: as above
T3 construct: domain: C3d

Factor Bb = molecular target: T4, Factor Bb (UniProt P00751 260-764); test: as above
T4 construct: domain: Factor Bb

T2 sequence (P01024 other isoform, or with tags, fused parts or gaps): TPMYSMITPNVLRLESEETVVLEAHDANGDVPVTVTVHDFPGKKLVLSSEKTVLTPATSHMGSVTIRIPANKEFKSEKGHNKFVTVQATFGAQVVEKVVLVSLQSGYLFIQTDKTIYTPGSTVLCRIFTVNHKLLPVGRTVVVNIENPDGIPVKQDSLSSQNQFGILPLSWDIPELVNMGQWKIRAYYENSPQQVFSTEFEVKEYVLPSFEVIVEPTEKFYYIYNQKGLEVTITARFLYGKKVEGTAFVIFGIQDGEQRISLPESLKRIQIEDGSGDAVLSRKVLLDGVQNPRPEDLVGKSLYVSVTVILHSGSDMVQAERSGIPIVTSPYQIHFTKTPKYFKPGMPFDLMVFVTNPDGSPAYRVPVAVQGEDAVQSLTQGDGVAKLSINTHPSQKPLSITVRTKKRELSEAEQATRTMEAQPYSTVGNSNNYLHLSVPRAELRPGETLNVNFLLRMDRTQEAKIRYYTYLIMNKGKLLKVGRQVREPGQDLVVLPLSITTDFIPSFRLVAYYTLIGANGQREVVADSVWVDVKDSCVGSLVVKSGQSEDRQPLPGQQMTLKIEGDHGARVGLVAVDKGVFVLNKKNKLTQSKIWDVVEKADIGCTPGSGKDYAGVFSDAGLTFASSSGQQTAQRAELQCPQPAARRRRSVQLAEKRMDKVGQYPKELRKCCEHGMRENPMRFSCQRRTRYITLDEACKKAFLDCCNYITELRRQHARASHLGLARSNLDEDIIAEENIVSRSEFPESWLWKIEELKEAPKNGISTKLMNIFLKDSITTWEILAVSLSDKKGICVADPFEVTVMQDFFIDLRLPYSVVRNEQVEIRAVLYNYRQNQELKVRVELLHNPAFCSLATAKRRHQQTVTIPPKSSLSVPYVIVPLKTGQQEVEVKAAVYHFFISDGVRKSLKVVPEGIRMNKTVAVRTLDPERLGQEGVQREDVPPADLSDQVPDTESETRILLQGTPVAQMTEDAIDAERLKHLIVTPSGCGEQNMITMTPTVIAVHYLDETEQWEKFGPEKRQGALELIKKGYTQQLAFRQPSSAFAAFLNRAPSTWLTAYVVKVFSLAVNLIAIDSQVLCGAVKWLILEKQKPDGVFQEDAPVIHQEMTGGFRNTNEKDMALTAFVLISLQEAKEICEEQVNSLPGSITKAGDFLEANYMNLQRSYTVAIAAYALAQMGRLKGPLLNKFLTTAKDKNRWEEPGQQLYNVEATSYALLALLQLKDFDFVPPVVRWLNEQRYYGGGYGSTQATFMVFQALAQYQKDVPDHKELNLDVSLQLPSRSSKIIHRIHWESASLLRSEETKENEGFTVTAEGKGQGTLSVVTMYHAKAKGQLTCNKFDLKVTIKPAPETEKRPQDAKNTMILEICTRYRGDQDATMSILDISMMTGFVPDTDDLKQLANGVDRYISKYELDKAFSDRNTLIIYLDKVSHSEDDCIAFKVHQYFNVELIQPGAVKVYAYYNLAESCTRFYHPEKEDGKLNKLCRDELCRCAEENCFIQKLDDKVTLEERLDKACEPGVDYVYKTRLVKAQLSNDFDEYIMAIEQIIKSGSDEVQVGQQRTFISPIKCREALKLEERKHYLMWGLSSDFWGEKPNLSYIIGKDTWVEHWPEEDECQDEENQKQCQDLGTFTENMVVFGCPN
Chain of C3a (P01024 672-748 limits assumed): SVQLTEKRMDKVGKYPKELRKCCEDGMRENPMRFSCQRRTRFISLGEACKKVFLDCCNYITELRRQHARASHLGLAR
T3 sequence (P01024 1002-1303 limits assumed): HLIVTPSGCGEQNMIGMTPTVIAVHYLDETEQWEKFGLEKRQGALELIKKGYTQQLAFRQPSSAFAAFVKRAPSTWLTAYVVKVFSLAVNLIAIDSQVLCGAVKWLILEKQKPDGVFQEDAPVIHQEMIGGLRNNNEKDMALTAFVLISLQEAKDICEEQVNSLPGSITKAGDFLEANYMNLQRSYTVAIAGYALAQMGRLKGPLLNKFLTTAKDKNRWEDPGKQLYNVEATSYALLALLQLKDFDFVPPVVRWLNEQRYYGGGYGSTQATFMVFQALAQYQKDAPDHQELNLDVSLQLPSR
T1 sequence (P01024 23-667, chain 1 of 2): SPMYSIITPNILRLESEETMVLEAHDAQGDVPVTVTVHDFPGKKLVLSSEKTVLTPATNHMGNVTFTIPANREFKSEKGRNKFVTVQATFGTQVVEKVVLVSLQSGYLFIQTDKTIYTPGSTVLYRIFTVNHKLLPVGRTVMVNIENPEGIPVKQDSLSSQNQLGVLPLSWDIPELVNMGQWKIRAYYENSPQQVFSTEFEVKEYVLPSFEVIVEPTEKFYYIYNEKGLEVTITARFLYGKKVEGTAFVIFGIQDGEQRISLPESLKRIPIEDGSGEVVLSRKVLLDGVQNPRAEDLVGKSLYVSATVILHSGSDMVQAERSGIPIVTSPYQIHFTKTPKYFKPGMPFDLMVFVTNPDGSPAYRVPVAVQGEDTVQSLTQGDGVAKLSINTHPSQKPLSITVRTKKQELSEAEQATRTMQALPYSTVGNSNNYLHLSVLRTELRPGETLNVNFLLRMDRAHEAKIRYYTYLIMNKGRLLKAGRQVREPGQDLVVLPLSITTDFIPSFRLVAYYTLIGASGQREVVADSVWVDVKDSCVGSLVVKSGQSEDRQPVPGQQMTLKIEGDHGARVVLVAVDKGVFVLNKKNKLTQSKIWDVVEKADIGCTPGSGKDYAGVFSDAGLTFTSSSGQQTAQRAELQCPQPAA
T1 sequence (P01024 672-1663, chain 2 of 2): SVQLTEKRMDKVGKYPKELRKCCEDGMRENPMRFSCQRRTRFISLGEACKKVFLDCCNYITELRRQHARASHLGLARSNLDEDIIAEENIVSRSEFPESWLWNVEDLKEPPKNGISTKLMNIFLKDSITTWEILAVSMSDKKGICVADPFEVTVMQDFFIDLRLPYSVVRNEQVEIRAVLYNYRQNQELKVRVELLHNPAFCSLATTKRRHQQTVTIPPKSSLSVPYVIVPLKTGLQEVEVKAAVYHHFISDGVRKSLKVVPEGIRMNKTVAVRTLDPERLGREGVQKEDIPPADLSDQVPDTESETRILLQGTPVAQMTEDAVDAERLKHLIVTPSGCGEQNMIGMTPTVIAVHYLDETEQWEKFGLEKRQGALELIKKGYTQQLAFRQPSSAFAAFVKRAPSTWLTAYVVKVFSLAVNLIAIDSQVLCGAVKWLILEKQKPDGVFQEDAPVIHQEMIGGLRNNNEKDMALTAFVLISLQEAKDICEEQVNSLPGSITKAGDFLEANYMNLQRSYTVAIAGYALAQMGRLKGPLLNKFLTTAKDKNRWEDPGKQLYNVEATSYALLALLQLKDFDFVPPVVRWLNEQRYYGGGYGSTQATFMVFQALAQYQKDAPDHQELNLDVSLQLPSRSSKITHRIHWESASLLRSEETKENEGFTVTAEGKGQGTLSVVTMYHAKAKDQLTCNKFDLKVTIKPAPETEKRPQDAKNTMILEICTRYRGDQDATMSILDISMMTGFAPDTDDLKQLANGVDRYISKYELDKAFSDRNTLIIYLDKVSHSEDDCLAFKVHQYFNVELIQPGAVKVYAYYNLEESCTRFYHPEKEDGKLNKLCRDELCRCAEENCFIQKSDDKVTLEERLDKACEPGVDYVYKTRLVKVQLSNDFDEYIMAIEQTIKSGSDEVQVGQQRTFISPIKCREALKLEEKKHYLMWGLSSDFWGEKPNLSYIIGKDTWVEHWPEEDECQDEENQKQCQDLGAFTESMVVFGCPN
Chain of C3b (P01024 23-667 limits assumed, chain 1 of 2): as the sequence (P01024 23-667, chain 1 of 2) above
Chain of C3b (P01024 749-1663 limits assumed, chain 2 of 2): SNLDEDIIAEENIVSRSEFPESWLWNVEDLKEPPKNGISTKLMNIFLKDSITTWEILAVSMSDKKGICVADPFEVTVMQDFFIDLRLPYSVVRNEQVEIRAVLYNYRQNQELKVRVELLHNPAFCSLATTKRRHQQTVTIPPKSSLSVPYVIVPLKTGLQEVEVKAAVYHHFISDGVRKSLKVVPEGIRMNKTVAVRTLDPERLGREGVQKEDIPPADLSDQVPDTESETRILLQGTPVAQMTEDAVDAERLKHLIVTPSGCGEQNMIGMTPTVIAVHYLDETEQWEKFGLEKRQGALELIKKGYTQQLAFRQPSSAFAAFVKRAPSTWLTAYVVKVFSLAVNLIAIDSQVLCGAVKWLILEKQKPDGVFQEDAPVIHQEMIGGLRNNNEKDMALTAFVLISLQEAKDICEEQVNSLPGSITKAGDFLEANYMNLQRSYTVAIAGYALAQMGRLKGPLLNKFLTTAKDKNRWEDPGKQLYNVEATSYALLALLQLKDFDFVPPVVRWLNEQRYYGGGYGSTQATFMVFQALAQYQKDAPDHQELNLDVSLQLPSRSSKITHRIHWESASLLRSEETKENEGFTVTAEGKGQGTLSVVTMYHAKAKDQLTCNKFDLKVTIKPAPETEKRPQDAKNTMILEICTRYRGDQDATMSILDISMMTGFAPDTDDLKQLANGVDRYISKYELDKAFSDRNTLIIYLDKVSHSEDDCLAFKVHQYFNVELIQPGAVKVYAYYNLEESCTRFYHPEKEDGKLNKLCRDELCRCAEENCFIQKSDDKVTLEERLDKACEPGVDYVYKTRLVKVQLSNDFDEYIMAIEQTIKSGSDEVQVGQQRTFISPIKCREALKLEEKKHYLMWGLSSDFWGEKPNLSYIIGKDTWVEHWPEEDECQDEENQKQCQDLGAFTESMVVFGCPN

Kd [1] [nM]	binding relative to negative control mIgG2 [7]	binding relative to negative control mIgG2 (C3a)	binding relative to negative control mIgG2 (C3b)	binding relative to negative control mIgG2 (C3d)	Binder	Hemolytic Assay IC50, Human AP [5] [nM]	Hemolytic Assay IC50, Human CP [5] [nM]	Hemolytic Assay IC50, Cyno AP [6] [nM]	Hemolytic Assay IC50, Cyno CP [6] [nM]	other results
0.27					antibody Hz38G10(G56A) (antibody, human IgG1, kappa, V domains shown, the light chain is the Hz38G10 light chain) VH: QVQLVQSGAEVKKPGASVKVSCKASGYTFTDFYMDWVRQAPGQRLEWMGYIYPHNAGTTYNQQFTGRVTITVDKSASTAYMELSSLRSEDTAVYYCARRGGFDFDYWGQGTLVTVSS VL: DIQMTQSPSSLSASVGDRVTITCKASENVDTYVSWYQQKPGKAPKLLIYGASNRYTGVPSRFSGSGSGTDFTFTISSLQPEDIATYHCGQSHSYPLTFGQGTKLEIKR					Alternative Pathway IC50 (hemolysis), Human C3 [2]: 3.9 nM; Classical Pathway IC50 (hemolysis), Human C3 [2]: 5.4 nM; Alternative Pathway IC50 (hemolysis), Cyno C3 [3]: 4.8 nM; Classical Pathway IC50 (hemolysis), Cyno C3 [3]: 0.6 nM
0.82					antibody Hz38G10(N55Q) (antibody, V domains shown, Variant of Hz38G10) VH: QVQLVQSGAEVKKPGASVKVSCKASGYTFTDFYMDWVRQAPGQRLEWMGYIYPHQGGTTYNQQFTGRVTITVDKSASTAYMELSSLRSEDTAVYYCARRGGFDFDYWGQGTLVTVSS VL: DIQMTQSPSSLSASVGDRVTITCKASENVDTYVSWYQQKPGKAPKLLIYGASNRYTGVPSRFSGSGSGTDFTFTISSLQPEDIATYHCGQSHSYPLTFGQGTKLEIK					
6.2					antibody Hz38G10(N55E) (antibody, V domains shown, Variant of Hz38G10) VH: QVQLVQSGAEVKKPGASVKVSCKASGYTFTDFYMDWVRQAPGQRLEWMGYIYPHEGGTTYNQQFTGRVTITVDKSASTAYMELSSLRSEDTAVYYCARRGGFDFDYWGQGTLVTVSS VL: DIQMTQSPSSLSASVGDRVTITCKASENVDTYVSWYQQKPGKAPKLLIYGASNRYTGVPSRFSGSGSGTDFTFTISSLQPEDIATYHCGQSHSYPLTFGQGTKLEIK					
0.23					antibody Hz38G10(G56T) (antibody, V domains shown, Variant of Hz38G10) VH: QVQLVQSGAEVKKPGASVKVSCKASGYTFTDFYMDWVRQAPGQRLEWMGYIYPHNTGTTYNQQFTGRVTITVDKSASTAYMELSSLRSEDTAVYYCARRGGFDFDYWGQGTLVTVSS VL: DIQMTQSPSSLSASVGDRVTITCKASENVDTYVSWYQQKPGKAPKLLIYGASNRYTGVPSRFSGSGSGTDFTFTISSLQPEDIATYHCGQSHSYPLTFGQGTKLEIK					
	0.95	-0.02	0.83	0.01	antibody 63A3 (antibody, V domains shown, Mouse hybridoma antibody) VH: DVQLQESGPGLVKPSQSLSLTCSVTGYSITSGYYWNWIRQFPGNKLEWMGYIRYDGSNNYNPSLKNRISITRDTSKNQVFLKLNSVTPEDTATYYCARHYGYDGGAFDFWGQGTTLTVSS VL: DIQMTQSPASLSASVGETVTITCRTSENIYNYLVWYQQKQGKSPQLLVYNAKTLEEGVPSRFSGSGSGTQFSLKVNSLQPEDFGSYYCQHHYGTPFTFGSGTKLEIK	6.5	4.1	3.4	1.6	
	0.7	-0.04	0.61	0.01	antibody 62F2 (antibody, V domains shown, Mouse hybridoma antibody) VH: DVQLQESGPDLVKPSQSLSLTCTVTGYSITSGYSLHWIRQFPGNKLEWMGYIHYSGSTNYNPSLKSRISITRDTSKNQFFLKLNSVTSEDTATYHCARAWDYLDYWGQGTTLTVSS VL: DIQMTQSPASLSASVGETVTITCRASENIYSQLAWYQQKQGKSPQLLVYDAKTLAEGVPSRFSGSGSDTQFSLKIISLQPEDFGRYYCHHHFGILYTFGGGTKLEMK	5.7	5	8.7	5.3	
	0.83	-0.03	0.76	-0.02	antibody 62B11 (antibody, V domains shown, Mouse hybridoma antibody) VH: EVKLVESGGGLVQPGGSLKLSCAASGFTFSSYTMSWVRQTPEKRLEWVAYISSGGGTTYYPDTVKGRFTVSRDNAKNTLYLQMSSLRSEDTAMYSCARRYYRGSSLWYFDVWGAGTTVTVSS VL: DIVMTQSPSSLTVTAGEKVTMSCKSSQSLFNSGSQKNFLTWYQQRPGQPPKLLIYWASTRESGVPDRFTGSGSGTDFTLTISSVQAEDLAVYYCQNDYSYPLTFGAGTKLELK	6.6	4.2	~11	~1	binding relative to negative control mIgG2 (Factor Bb): -0.02

More lines, now with the values behind:

Binder	Kd [1] [nM]	binding relative to negative control mIgG2 [7]	binding relative to negative control mIgG2 (C3a)	binding relative to negative control mIgG2 (C3b)	binding relative to negative control mIgG2 (C3d)	Hemolytic Assay IC50, Human AP [5] [nM]	Hemolytic Assay IC50, Human CP [5] [nM]	Hemolytic Assay IC50, Cyno AP [6] [nM]	Hemolytic Assay IC50, Cyno CP [6] [nM]	other results
antibody Hz38G10(N55D) (antibody, V domains shown, Variant of Hz38G10 with N55D in the heavy chain CDR2, mimicking a fully deamidated molecule) VH: QVQLVQSGAEVKKPGASVKVSCKASGYTFTDFYMDWVRQAPGQRLEWMGYIYPHDGGTTYNQQFTGRVTITVDKSASTAYMELSSLRSEDTAVYYCARRGGFDFDYWGQGTLVTVSS VL: DIQMTQSPSSLSASVGDRVTITCKASENVDTYVSWYQQKPGKAPKLLIYGASNRYTGVPSRFSGSGSGTDFTFTISSLQPEDIATYHCGQSHSYPLTFGQGTKLEIK										binding result [1]: binds
Fab version of Hz38G10 (Fab, V domains shown) VH: QVQLVQSGAEVKKPGASVKVSCKASGYTFTDFYMDWVRQAPGQRLEWMGYIYPHNGGTTYNQQFTGRVTITVDKSASTAYMELSSLRSEDTAVYYCARRGGFDFDYWGQGTLVTVSS VL: DIQMTQSPSSLSASVGDRVTITCKASENVDTYVSWYQQKPGKAPKLLIYGASNRYTGVPSRFSGSGSGTDFTFTISSLQPEDIATYHCGQSHSYPLTFGQGTKLEIK										AP human C3 IC50 (hemolysis) [4]: 16 nM; CP human C3 IC50 (hemolysis) [4]: 17.8 nM
antibody 3G8 (antibody, V domains shown, Mouse hybridoma antibody) VH: EIQLQQSGAELVKPGASVKISCMASGYSFTGYNMNWVKQSHGKGLEWIGNINPYYDSTSYNQKFKGKATLTVDKSSSTAYMQLNSLTSEDSAVYYCARENYDFVGFAYWGQGTLVTVSA VL: QIVLSQSPAILSASPGEKVTMTCRASSSVSYMHWFQQKPGSSPKPWIYVTSNLASGVPPRFSGSGSGTSYSLTISRVEAEDAATYYCQQWSTNPLTFGAGTKLELK		0.37	-0.01	0.33	0	6.8	10.4	20.9	102	
antibody 38F5 (antibody, V domains shown, Mouse hybridoma antibody) VH: EVMLVESGGALVKPGGSLKLSCTASGFTFSNYAMSWVRQTPEKRLEWVAQTISSGGRYTYYPDSVKGRFTISRDNARNTLYLQMSSLRSEDTAMYYCVRRYYGNSYWYFDVWGAGTTVTVSS VL: DIVMTQSPSSLSVSAGEKVTMNCKSSQSLLNSGNQKHYLTWYQQKPGQPPKLLIYGASTRGSGVPDRFTGSGSGTDFTLTISSVQAEDLAVYYCQNDHSYPYTFGGGTKLEIK		0.83	0	0.66	0.01	9.2	6.7	12.9	2.3	binding relative to negative control mIgG2 (Factor Bb): -0.01
antibody 27A8 (antibody, V domains shown) VH: QVQLLQPGAEFVKPGASVKLSCKASGYTFTDYWINWVKQRPGQGLEWIGNIYPGSTSANYNEKFKSKATLTIDTSSITAYMQLSSLTSDDSAVYYCARYGYDSWFAYWGQGTLVTVSA VL: DVVLTQTPLSLPVNIGDQASISCKSTKSLLNSDGFTYLDWFLQKPGQSPHLLIYLVSNRFSGIPDRFSGSGSETDFTLKISRVEAEDLGVYYCFQSNYLPLTFGSGTKLEIK						8.5	7.6	9.6		
antibody 28C3 (antibody, V domains shown, Mouse hybridoma antibody) VH: QVQLQQSGPELVKPGASVKISCKASGYAFNSCWMNWVKQRPGKGLEWIGRIYPGDGDTNYNGKFKGKATLTADKSSTTAYMQLSSLTSEDSAVYFCAREGRNYGYEDYWGQGTTLTVSS VL: DIVLTQSPASLAVSLGQRATISCKASQSVDYDGDSYMNWYQQKPGQPPKLLIYAASDLESGIPARFSGSGSGTDFTLNIHPVEEEDAATYYCQQANEDPRTFGGGTKLEIK		0.66	0.11	0.09	0.01	8	6.5	7.8	3.4	
